The source of these data is patent US11370825B2, “Polypeptides, cells, and methods involving engineered CD16” (Regents of the University of Minnesota, priority 2014, dated 2022).

The test system of assay [1] is ADAM17. Briefly: Soluble CD16b released from transfected HEK293 cells, ELISA of media supernatant (shedding). Type of assay: cell-based, human. Here is the method:
(§1) FIG. 3. Effects of the engineered S197P mutation on CD16a and CD16b shedding. Transfected HEK293 (human embryonic kidney) cells separately expressed CD16b and CD16b/S197P (A) or CD16a and CD16a/S197P (B) at similar levels, as determined by flow cytometry (left panels). The different transfectants were treated with or without PMA (15 ng/ml for 30 minutes at 37° C.) and soluble levels of CD16 in the media supernatant were quantified by ELISA (right panels). Each treatment condition was repeated three times for each experiment and the data are representative of three independent experiments. Bar graphs show mean±SD. Statistical significance is indicated as ***P<0.001. (C) Transfected HEK293 cells expressed L-selectin (CD62L) or L-selectin and CD16b/S197P. Surface levels of L-selectin and CD16b/S197P on transfected and mock-transfected cells were measured using flow cytometry (histogram plots). Transfectants expressing L-selectin or L-selectin and CD16b/S197P were incubated in the presence or absence of PMA for 30 minutes at 37° C., and the mean fluorescence intensity (MFI) of L-selectin staining determined (bar graph). Each treatment condition was repeated three times for each experiment and the data are representative of two independent experiments. Bar graphs show mean±SD. Statistical significance is indicated as *P<0.05. For all histogram plots, the x-axis=Log 10 fluorescence and the y-axis=cell number.
HEK293 cells (a human embryonic kidney cell line) and NK92 cells (a human NK cell line) (ATCC, Manassas, Va.) were cultured according to the depository's instructions. HEK293 cells were transiently transfected with pcDNA3.1 with or without CD16b, CD16b/S197P, and/or L-selectin using Lipofectamine 2000 (Invitrogen, Carlsbad, Calif.) according to the manufacturer's instructions. HEK293 cells stably expressing human FcRγ were transiently transfected with pcDNA3.1 with or without CD16a or CD16a/S197P by the same approach. NK92 cells were stably transduced with pBMN-IRES-EGFP with or without CD16a or CD16a/S197P by retrovirus generation and infection procedures described previously (Matala et al., 2001, J Immunol. 167:1617-1623; Walcheck et al., 2003, J Leukoc Biol. 74:389-394; Wang et al., 2009, J Immunol. 182:2449-2457). Construct expression was assessed by EGFP fluorescence and CD16 staining, as determined by flow cytometry. Human iPSCs (UCBiPS7, derived from umbilical cord blood CD34 cells) were maintained on mouse embryonic fibroblasts (Knorr et al., 2013, Stem Cells Transl Med. 2:274-283; Ni et al., 2014, Stem Cells 32:1021-1031). Stable expression of CD16a or CD16a/S197P was performed using a Sleeping Beauty transposon system as previously described (Wilber et al., 2007, Stem Cells 25:2919-2927; Tian et al., 2009, Stem Cells 27:2675-2685). […]
On the technique in general: ELISA stands for enzyme-linked immunosorbent assay.

The subject of assay [2] is ADAM17. As to the kind of experiment: L-selectin surface down-regulation in HEK293 transfectants expressing or lacking CD16b/S197P (ADAM17 activity control). Type of assay: cell-based, human. As to conditions: HEK293 cells expressing versus lacking CD16b/S197P; PMA 30 minutes at 37° C. Here is the method:
as §1, with “(C) Transfected HEK293 cells expressed L-selectin (CD62L) or L-selectin and CD16b/S197P.” left out, “Each treatment condition was repeated three times for each experiment and the data are representative of two independent experiments. Bar graphs show mean±SD. Statistical significance is indicated as *P<0.05.” left out
HEK293 cells (a human embryonic kidney cell line) and NK92 cells (a human NK cell line) (ATCC, Manassas, Va.) were cultured according to the depository's instructions. […] Construct expression was assessed by EGFP fluorescence and CD16 staining, as determined by flow cytometry. […]

[3] abbreviates: HEK293 transfectants treated with PMA 15 ng/ml for 30 minutes at 37° C.
Setting [4] is: untreated transfected HEK293 cells.

B1: CD16b: Wild-type human IgG Fc receptor CD16b (FcγRIIIb), NA1 allelic variant, recombinant comparator (protein, listed as Homo sapiens)
chain: MWQLLLPTALLLLVSAGMRTEDLPKAVVFLEPQWYRVLEKDSVTLKCQGAYSPEDNSTQWFHNENLISSQASSYFIDAATVDDSGEYRCQTNLSTLSDPVQLEVHVGWLLLQAPRWVFKEEDPIHLRCHSWKNTALHKVTYLQNGKDRKYFHHNSDFHIPKATLKDSGSYFCRGLVGSKNVSSETVNITITQGLAVSTISSFS
As for B1, the “soluble levels of CD16 in media supernatant” value in the assay on ADAM17 [1] (setting [3]) was “increased further”; in the assay with ADAM17 [1] (setting [4]), “High levels”.

B2: CD16b/S197P: Human CD16b (FcγRIIIb, SEQ ID NO:2, NA1 variant) with serine-197 substituted by proline; expressed in HEK293 cells (protein, listed as Homo sapiens)
chain: MWQLLLPTALLLLVSAGMRTEDLPKAVVFLEPQWYRVLEKDSVTLKCQGAYSPEDNSTQWFHNENLISSQASSYFIDAATVDDSGEYRCQTNLSTLSDPVQLEVHVGWLLLQAPRWVFKEEDPIHLRCHSWKNTALHKVTYLQNGKDRKYFHHNSDFHIPKATLKDSGSYFCRGLVGSKNVSSETVNITITQGLAVPTISSFS
With B2, the “soluble levels of CD16 in media supernatant” value with ADAM17 [1] (setting [3]) and in the assay on ADAM17 [1] (setting [4]) was “markedly lower” each time. The “L-selectin down-regulation following activation with PMA” value in the assay with ADAM17 [2] was “similarly down-regulated”.
